Measured values taken from patent US20250122303A1, “TREATMENT AND PREVENTION OF CANCER USING HER3 ANTIGEN-BINDING MOLECULES” (Hummingbird Bioscience Pte. Ltd., priority 2021, published 2025).

What was measured:
cynomolgus macaque HER3 = test: ELISA cross-reactivity, cynomolgus macaque HER3; assay type: binding
Method: (§1) ELISAs were used to determine the binding specificity of the antibodies. The antibodies were analysed for binding to human HER3 polypeptide, as well as respective mouse, rat and monkey homologues of HER3 (Sino Biological Inc., China). The antibodies were also analysed for their ability to bind to human EGFR and human HER2 (Sino Biological Inc., China).
ELISAs were carried out according to standard protocols. Briefly, 96-well plates (Nunc, Denmark) were coated with 0.1 μg/ml of target polypeptide in phosphate-buffered saline (PBS) for 16 h at 4° C. After blocking for 1 h with 1% BSA in Tris buffer saline (TBS) at room temperature, the anti-HER3 antibody was serially diluted with the highest concentration being 10 μg/ml, and added to the plate. Post 1 h incubation at room temperature, plates were washed three times with TBS containing 0.05% Tween 20 (TBS-T) and were then incubated with a HRP-conjugated anti-His antibody (Life Technologies, Inc., USA) for 1 h at room temperature. After washing, plates were developed with colorimetric detection substrate 3,3′,5,5′-tetramethylbenzidine (Turbo-TMB; Pierce, USA) for 10 min. The reaction was stopped with 2M H2SO4, and OD was measured at 450 nm. […]

human HER2 = target: T1, human HER2 (Homo sapiens, UniProt P04626); test: ELISA specificity, human HER2; assay type: binding; conditions: antibody up to 10 μg/ml
T1 construct: purchased Sino Biological Inc., China
Method: as §1
ELISAs were carried out according to standard protocols. Briefly, 96-well plates (Nunc, Denmark) were coated with 0.1 μg/ml of target polypeptide in phosphate-buffered saline (PBS) for 16 h at 4° C. After blocking for 1 h with 1% BSA in Tris buffer saline (TBS) at room temperature, the anti-HER3 antibody was serially diluted with the highest concentration being 10 μg/ml, and added to the plate. Post 1 h incubation at room temperature, plates were washed three times with TBS containing 0.05% Tween 20 (TBS-T) and were then incubated with a HRP-conjugated anti-His antibody (Life Technologies, Inc., USA) for 1 h at room temperature. […] The reaction was stopped with 2M H2SO4, and OD was measured at 450 nm.
The antibodies were analysed for their ability to bind to human HER3 polypeptide as well as human HER1 (EGFR) and human HER2 (Sino Biological Inc., China). […]
ELISAs were carried out according to standard protocols. […] The reaction was stopped with 2M H2SO4, and OD was measured at 450 nm.

[1] = assay type: physicochemical; conditions: 0.2 mg/mL in PBS, three samples
Method: 3.4 Analysis of thermostability by Differential Scanning Fluorimetry Briefly, triplicate reaction mixes of antibodies at 0.2 mg/mL and SYPRO Orange dye (ThermoFisher) were prepared in 25 μL of PBS, transferred to wells of MicroAmp Optical 96-Well Reaction Plates (ThermoFisher), and sealed with MicroAmp Optical Adhesive Film (ThermoFisher). Melting curves were run in a 7500 fast Real-Time PCR system (Applied Biosystems) selecting TAMRA as reporter and ROX as passive reference. The thermal profile included an initial step of 2 min at 25° C. and a final step of 2 min at 99° C., with a ramp rate of 1.2%. The first derivative of the raw data was plotted as a function of temperature to obtain the derivative melting curves. Melting temperatures (Tm) of the antibodies were extracted from the peaks of the derivative curves.
The thermostability of the variant was also analysed by Differential Scanning Fluorimetry analysis as described in Example 3.4.

[2] = tested on: N87 cell-line derived mouse gastric carcinoma model; test: N87 cell-line derived xenograft model; assay type: in vivo; conditions: N87, IP biweekly 500 μg, 10 doses
Method: (§2) Tumor volumes were measured 3 times a week using a digital caliper and calculated using the formula [L ×W2/2]. Study End point was considered to have been reaches once the tumors of the control arm measured >1.5 cm in length.
The model was established by subcutaneous injection of 1×10^6 N87 cells into the right flank (n=6 mice per treatment group).
10D1 was administered IP, biweekly at 500 μg per dose (for a total of 10 doses); a control treatment group received an equal volume of PBS.
Tumour cells are inserted with matrigel subcutaneously into the right flanks of female NCr nude mice.
Murine tumour efficacy studies were performed using cell-line derived xenograft (CDX) models in mice. Female NCr nude mice (5-8 weeks old, 21-29 g) were subcutaneously implanted with N87, A549, FaDu, OvCAR8 cells. Treatment was initiated when tumours reached approximately 100 to 200 mm^3. Vehicle (PBS) or therapeutic antibodies (25 mg/kg) were administered intraperitoneally (IP) at indicated time points (weekly FaDu and OvCAR8, twice weekly N87 and A549). Tumours were measured twice per week using a calliper and tumour volume (mm^3) was calculated. Each data point represents the mean tumour volume ±SEM (n=8 mice).

[3] = tested on: FaDu cell-line derived mouse model of head and neck squamous cell carcinoma; test: FaDu cell-line derived xenograft model; assay type: in vivo
Method: as §2
The model was established by subcutaneous injection of 1×10^6 FaDu cells into the right flanks of female NPG mice (NOD scid gamma phenotype; n=6 mice per treatment group).
10D1 was administered IP, weekly at 500 μg per dose (for a total of 4 doses). Control treatment groups received an equal volume of PBS, or the same dose of an isotype control antibody.
The model was established by subcutaneous injection of 1×10^6 FaDu cells into the right flanks of female NCr nude mice (n=6 mice per treatment group).
10D1 was administered IP, biweekly at 500 μg per dose (for a total of 8 doses); a control treatment group received an equal volume of PBS.
Tumour cells were inserted with matrigel subcutaneously into the right flanks of female NCr nude mice.
Murine tumour efficacy studies were performed using cell-line derived xenograft (CDX) models in mice. Female NCr nude mice (5-8 weeks old, 21-29 g) were subcutaneously implanted with N87, A549, FaDu, OvCAR8 cells. Treatment was initiated when tumours reached approximately 100 to 200 mm^3. […] Tumours were measured twice per week using a calliper and tumour volume (mm^3) was calculated. […]

[4] = tested on: A549 cell-line derived mouse model of lung adenocarcinoma; test: A549 cell-line derived xenograft model; assay type: in vivo; conditions: A549, NCr nude mice, IP biweekly 500 μg, 10 doses
[5] = Pharmacokinetic analysis in NCr nude mice; conditions: 500 μg
Method: Female NCr nude mice approximately 6-8 weeks old were housed under specific pathogen-free conditions and treated in compliance with the Institutional Animal Care and Use Committee (IACUC) guidelines. 500 μg anti-HER3 antibody was administered and blood was obtained from 3 mice by cardiac puncture at baseline (−2 hr), 0.5 hr, 6 hr, 24 hr, 96 hr, 168 hr and 336 hr after administration. Antibody in the serum was quantified by ELISA.
The parameters for the pharmacokinetic analysis in rats and mice were derived from a non-compartmental model: maximum concentration (Cmax), AUC (0-336 hr), AUC (0-infinity), Half-life (t1/2), Clearance (CL), Volume of distribution at steady state (Vd).
Antibody in the serum was quantified by ELISA.
A single dose PK study was performed in NCr Nude mice (25 mg/kg HMBD-001, IV). A single dose PK study including a range of dose levels (2, 5, 10 and 25 mg/kg HMBD-001, IP) was conducted in A549 tumour bearing mice.

B1: 10D1: anti-HER3 antibody clone, VH SEQ ID NO:24, VL SEQ ID NO:74; [1] of Example 2.2 (antibody, V domains shown)
VH: DVQLQESGPDLVKPSQSLSLTCTVTGYSITSGYSWHWIRQFPGNKLEWMGSIHYSGGTNYNPSLKSRISITRDTSKNQFFLQLNSVTTEDTATYFCARMTTAPRYPFDYWGQGTTLTVSS
VL: DIVMTQSQKFMSTSVGDRVSVTCKASQIVGSNVAWYQQKPGQSPKPLIYSASYRYSGVPDRFTASGSGTDFTLTITNVQSEDLAEYFCQQYSSHPLTFGAGTKLELK
- binding / cross-reactivity with cynomolgus macaque HER3 (cynomolgus macaque HER3): substantial cross-reactivity
- binding to human HER2 (human HER2): not to bind
- Tm [1]: 70.3 °C
- inhibition of tumor growth [2]: ~76%
- inhibition of tumor growth ([3]; NCr nude mice, IP biweekly 500 μg, 8 doses): ~86%
- inhibition of tumor growth ([3]; NPG mice, IP weekly 500 μg, 4 doses): ~85%
- inhibition of tumor growth [4]: ~91%
- half-life [5]: 16.3 days
